We go through 15 molecules from US20250154231A1 (RQBIO COVID, published 2025).

Test [1] addresses T1, Omicron BA.1 RBD (SARS-CoV-2, UniProt P0DTC2 333-528).
T1 construct: domain: RBD
The test is described as follows: crystal structure of the complex.

In test [2] the target is T1, Omicron BA.1 RBD. Description: ELISA.
For test [3], the target named is T2, Omicron BA.2.12.1 RBD (SARS-CoV-2, UniProt P0DTC2 333-528).
T2 construct: domain: RBD
The test is described as follows: crystal structure of the ternary complex, 2.38 A.

Test [4] addresses T3, Omicron BA.2 RBD (SARS-CoV-2, UniProt P0DTC2 333-528).
Test [5] deals with T3, Omicron BA.2 RBD. This is another data set of the same source.
Test [6] concerns the target T3, Omicron BA.2 RBD. This is another data set of the same source.
Test [7] has as its target T2, Omicron BA.2.12.1 RBD.
For test [8], the target named is T3, Omicron BA.2 RBD. The source holds these as a separate data set.
Test [9] concerns the target T3, Omicron BA.2 RBD. The source holds these as a separate data set.
For test [10], the target named is T3, Omicron BA.2 RBD. This is another data set of the same source.
Test [11] concerns the target T3, Omicron BA.2 RBD. The source holds these as a separate data set.
Test [12] concerns the target T3, Omicron BA.2 RBD. The source holds these as a separate data set.
Test [13] has as its target T3, Omicron BA.2 RBD. Description: SPR, single injection of RBD over the IgG.
The target in test [14] is T3, Omicron BA.2 RBD. This is another data set of the same source.
Test [15] concerns the target T3, Omicron BA.2 RBD. The source holds these as a separate data set.
For test [16], the target named is T2, Omicron BA.2.12.1 RBD. This is another data set of the same source.

Where two headings read alike, the source gives them in different places.

B1: Omi-9 Fab (Fab, V domains shown)
VH: QVQLVESGGGVVQPGRSLRLSCAASGFTFRTYAVHWVRQAPGKGPEWVAVISYDGSNKYYADSVKGRFTLSRDTSKNTLYLQMNSLRAEDTAVYYCASRGDTVTTGDAFDIWGQGTMVTVSS
VL: SYELTQPPSVSVSPGQTARITCSGDALPKQYTYWYQQKPGQPPVLVIYKDSERPSGIPERFSGSSSGTTVTLTISGVQAEDEADYYCQSTDSSATYPGNVVFGGGTKLTVL
As to B1, the binding result with Omicron BA.1 RBD [1] was “binds”.

B2: Omi09 (antibody, V domains shown)
VH: B1 VH
VL: B1 VL
With B2, the binding result with Omicron BA.1 RBD [2] is given as “binds”.

B3: Beta-27 Fab (Fab, V domains shown)
VH: EVQLLESGGGLVQPGGSLRLSCAASGLTVRSNYMNWVRQAPGKGLEWVSLIYSGGSTFYADSVKGRFTISRHDSKNTLYLQMNSLRAEDTAVYYCARDLVVYGMDVWGQGTTVTVSS
VL: DIQMTQSPGTLSLSPGERATLSCRASQSVSSSSLAWYQQKHGQAPRLLIYGTSSRATGIPDRFSGSGSGTDFTLTISGLEPEDFAVYYCQQYGSSPLFGGGTKVEIK
As to B3, the binding result with Omicron BA.2.12.1 RBD [3] is “binds”.

B4: Omi-42 Fab (Fab, V domains shown)
VH: EVQLLETGGGLVQPGRSLRLSCAASGFPFDDYAIHWVRLAPGKGLEWVSSISWDSGSIGYADSVKGRFTISRDNAKNSLYLQMNSLRAEDTALYYCAKGAFPGYSSGWYYGLDVWGQGATVTVSS
VL: QSVVTQPPSASGSLGQSVTISCTGTSSDVGGYNYVSWYQQHPGKAPKLMIFEVSKRPSGVPDRFSGSKSGNTASLTVSGLQAEDEADYYCSSYAGNKGVFGGGTKLTVL
Regarding B4, in the test with Omicron BA.2 RBD [4], the Kd – broadly, the constant that tells how readily two partners part at equilibrium – worked out at 0.99 nM; the T1/2 came to 131 min; the koff – broadly, the rate constant with which the complex falls apart – amounted to 8.8e-05 s⁻¹; the kon (as a rule, a measure of how fast the partners come together) was determined as 89000 M⁻¹ s⁻¹.

B5: Omi03 (antibody, V domains shown)
VH: EVQLVESGGGLIQPGGSLRLSCAASEIIVSRNYMSWVRQAPGKGLEWVSVIYSGGSTFYADSVKGRFTISRDNSKNTLYLQMNSLRAEDTAVYYCARDLDVVGGTDYWGQGTLVTVSS
VL: not shown
For the molecule B5, in the test with Omicron BA.2 RBD [5], the equilibrium dissociation constant (Kd) stood at 4.4 nM and the T1/2 stood at 2.9 min.

B6: Omi12 (antibody, V domains shown)
VH: EVQLVESGPEVKKPGTSVKVSCKASGFSFSMSAMQWVRRARGQRLEWIGWIVPGSGNANYAQKFQERVTITRDESTNTGYMELSSLRSEDTAVYYCAAPHCNKTNCYDAFDIWGQGTMVTVSS
VL: AIRMTQSPGTLSLSPGERATLSCRASQSVRSSYLAWYQQKPGQAPRLLIYGASTRATGIPDRFSGSGSGTDFILTINRLEPEDLAVYYCQQFGSSPWTFGQGTKVDIK
Regarding B6, in the test with Omicron BA.2 RBD [6], the Kd turned out to be 0.13 nM, the T1/2 came to 20 min, the koff came to 0.00058 s⁻¹ and the kon was 4.3e+06 M⁻¹ s⁻¹.

B7: Omi06 (antibody, V domains shown)
VH: EVQLLESGPGLVKPSETLSLTCTVSGGSISRYSWSWIRQPAGRGLEWIGRMYSSGGTNYNPSLESRVTMSLDTSKKQFSLKLSSVTAADTAVYYCAAASIDQVWGTYRDAFDIWGQGTMVTVSS
VL: AIRMTQSPSSLAASVGDRVTISCRAGQSISSFLHWYQQKVGKAPKLLIYDASSLQSGVPSRFSGSGSGTDFTLTISSLQPEDFAAYYCQQSYENPLTFGGGTKVDIK
The molecule B7 had a Kd with Omicron BA.2.12.1 RBD [7] of 19 nM. In the test with Omicron BA.2 RBD [8], the affinity, expressed as Kd, was 1.3 nM; the T1/2 amounted to 0.983 min; the koff was 0.012 s⁻¹; the on-rate constant (kon) was determined as 9e+06 M⁻¹ s⁻¹.

B8: Fab Beta-54 (Fab, V domains shown)
VH: QVQLQESGPGLVKPSETLSLTCTVFGGSITSSNHYWVWIRQPPGKGLEWIGSMYYSGSTAYNPSLTNRVTISVDTSKNQFSLKLSSVTAADTAVYYCARQIGPKRPSQVADWFDPWGQGTLVTVSS
VL: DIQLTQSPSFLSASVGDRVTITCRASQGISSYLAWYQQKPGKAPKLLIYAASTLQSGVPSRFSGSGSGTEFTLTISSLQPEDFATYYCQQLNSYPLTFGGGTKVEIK
B8: in the test with Omicron BA.2 RBD [9], the Kd worked out at 44 nM, the T1/2 worked out at 2.3 min, the koff stood at 0.005 s⁻¹ and the kon came to 110000 M⁻¹ s⁻¹.

B9: Omi08 (antibody, V domains shown)
VH: EVQLVESGAEVKRPGASVKVSCKASGYTFTNYFMHWVRQAPGQGLEWMGVINPSDGGASYPQKFQGRVTMTRDTSTSTVYMDLSSLRSEDTAVYSCARGAFDVSGSWYVPFDYWGQGTLVTVSS
VL: QSVVTQPPSVSGAPGQRVTISCTGSSSNIGAGYDVHWYQQLPGAAPKLLIYGNTNRPSGVPDRFSGSKSGTSASLAITGLQAEDEADYYCQSYDITLSGSGYVFGTGTKVTVL
In the case of B9, the binding result in the test with Omicron BA.1 RBD [2] is on record as “binds”.

B10: Omi-20 Fab (Fab, V domains shown)
VH: EVQLVESGGGLVQPGGSLRLSCEASEITVSSNYMNWVRQAPGKGLEWVSVLFAGGTTYYADSVKGRFTISRDNSKNTLYLQMNTLRIEDTAIYYCARDLVAYGVDVWGQGTTVTVSS
VL: AIQMTQSPSFLSASVGDRVTITCRASQGISGDLAWYQQKPGKAPKLLIYAASTLQSGVPSRFSGSGSGTEFTLTISSLQPEDFATYYCQHLNSYPLTFGGGTKVEIK
B10: in the test with Omicron BA.2 RBD [10], the Kd worked out at 138 nM, the T1/2 is 3.2 min, the off-rate (koff) turned out to be 0.0036 s⁻¹ and the kon is 26000 M⁻¹ s⁻¹.

B11: Omi20 (antibody, V domains shown)
VH: B10 VH
VL: B10 VL
Take B11: in the test with Omicron BA.2 RBD [11], the affinity, expressed as Kd, was 2.4 nM; the T1/2 is 5.6 min; the koff was determined as 0.0021 s⁻¹; the kon came out at 870000 M⁻¹ s⁻¹.

B12: Omi-32 Fab (Fab, V domains shown)
VH: EVQLVESGGGVVQPGRSLRLSCAASGFTFSNYGMHWVRQAPGKGLEWVAVYWYDGGNKFYADSVKGRFTISRDNSKNTLYLQMNSLRVEDTAVYYCARDTAPPDYWGQGTLVTVSS
VL: AIRMTQSPGTLSLSPGERATLSCRASQSISSSFLAWYQQKPGQAPRLLIYGASSRATGIPDRFSGSGSGTDFTLTISRLEPEDFAVYYCQQYGTSPRLTFGGGTKVDIK
For the molecule B12, in the test with Omicron BA.2 RBD [12], the Kd is 5.9 nM, the T1/2 stood at 71 min, the koff came to 0.00016 s⁻¹ and the kon stood at 27000 M⁻¹ s⁻¹.

B13: Omi36 (antibody, V domains shown)
VH: EVQLVESGGGVVQPGGSLRLSCAASGIIVSANYMTWVRQAPGKGLEWVSVIYPGGSTFYADSVKGRFTISRDNSKNTLYLQMNSLRVEDSAVYYCARDLELAGFNDYWGQGTLVTVSS
VL: DIVMTQSPGTLSLSPGERATLSCRTSQSVSSNYLAWYQQKPGQAPRLLIYGASSRATGIPDRFSGSGSGTDFTLTISRLEPEDFAVYYCQQFGSSPRYTFGQGTKVEIK
Regarding B13, the binding result with Omicron BA.1 RBD [2] and with Omicron BA.2 RBD [13] was “binds” in each case.

B14: Omi-18 Fab (Fab, V domains shown)
VH: QVQLVESGGGLIQPGGSLRLSCAASGITVSSNYMTWVRQAPGKGLEWVSLLYAGGSAFYADSVKGRFTISRDNSKNTLYLLMNSLRVGDTAVYYCARDLQVYGMDVWGQGTTVTVSS
VL: SYELTQPPSVSVAPGQTARITCGGNNDGAKSVHWYQQKPGQAPVLVVYDDSDRPSGIPERFSGSNSGNTATLTITRIEAGDEADYYCQVWDSSRDHVFGTGTKVTVL
As to B14, in the test with Omicron BA.2 RBD [14], the Kd is 4.3 nM, the T1/2 was 20 min, the koff came to 0.00057 s⁻¹ and the kon amounted to 130000 M⁻¹ s⁻¹.

B15: Omi31 (antibody, V domains shown)
VH: EVQLVQSGAEVKKPGSSVKVSCKASGGTFSSYGISWVRQAPGLGLEWMGGVIPILSAKHYAQRFQGRVTITADKSTGTAYMELSSLRSEDTAVYYCARDILHHDDLWGRFYYDGMDVWGQGTTVTVSS
VL: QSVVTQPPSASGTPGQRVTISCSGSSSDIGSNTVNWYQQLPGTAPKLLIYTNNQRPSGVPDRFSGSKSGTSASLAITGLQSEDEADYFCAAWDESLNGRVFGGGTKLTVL
For the molecule B15, in the test with Omicron BA.2 RBD [15], binding was put at a Kd of 0.0032 nM, the T1/2 came out at 366 min, the koff was 3.1e-05 s⁻¹ and the kon is 9.8e+06 M⁻¹ s⁻¹. In the test with Omicron BA.2.12.1 RBD [16], this molecule displayed a Kd of 4.1 nM, a T1/2 of 0.733 min, a koff of 0.016 s⁻¹ and a kon of 3.8e+06 M⁻¹ s⁻¹.
